Test results from patent US8357523B2, “Beta-glucosidase variant enzymes and related polynucleotides” (Codexis, Inc., priority 2009, dated 2013).
Where a chain is given by its changes, count along the chain named.

B1: 7 (protein)
chain: STAIAQEGAAPAAILHPEKWPRPATQRLIDPAVEKRVDALLKQLSVEEKVGQVIQGDIGTITPEDLRKYPLGSILAGGNSGPNGDDRAPPKEWLDLADAFYRVSLEKRPGHTPIPVLFGIDAVHGHGNIGSATIFPHNIALGATHDPELLRRIGEVTAVEMAATGIDWTFAPALSVVRDDRWGRTYEGFSEDPEIVAAYSAAIVEGVQGKYGSKDFMAPGRIVASAKHFLADGGTDQGRDQGDARISEDELIRIHNAGYPPAIDAGVLTVMASFSSWQGIKHHGHKQLLTDVLKGQMGFNGFIVGDWNAHDQVPGCTKFNCPTSLIAGLDMYMAADSWKQLYENTLAQVKDGTIPMARLDDAVRRILRVKVLAGLFEKPAPKDRPGLPGLETLGSPEHRAVGREAVRKSLVLLKNDKGTLPLSPKARVLVAGDGADNIGKQSGGWTISWQGTGNRNDEFPGATSILGGIRDAVADAGGSVEFDVAGQYKTKPDVAIVVFGEEPYAEFQGDVETLEYQPDQKQDLALLKKLKDQGIPVVAVFLSGRPMWVNPELNASDAFVAAWLPGTEGGGVADVLFTDKAGKVQHDFAGKLSYSWPRTAAQTTVNRGDADYNPLFAYGYGLTYKDKSKVGTLPEESGVPAEARQNAGIYFRAGALRLPGRFL
B2: 27 (protein)
chain: B1 chain with A202Y, Y211F
B3: 13 (protein)
chain: B1 chain with A198C, Y211F
B4: 25 (protein)
chain: B1 chain with R151P, Y211F
B5: 21 (protein)
chain: B1 chain with V159Q, Y211F
B6: 33 (protein)
chain: B1 chain with V159R, Y211F
B7: 23 (protein)
chain: B1 chain with A202P, Y211F
B8: 11 (protein)
chain: B1 chain with V159L, Y211F
B9: 22 (protein)
chain: B1 chain with V159I, Y211F
B10: 28 (protein)
chain: B1 chain with Y211W
B11: 30 (protein)
chain: B1 chain with E155D, Y211F
B12: 32 (protein)
chain: B1 chain with Y211F, I222G
B13: 14 (protein)
chain: B1 chain with D146S, Y211F
B14: 8 (protein)
chain: B1 chain with A162T, Y211F
B15: 29 (protein)
chain: B1 chain with A201P, Y211F
B16: 17 (protein)
chain: B1 chain with Y211F, P219M
B17: 12 (protein)
chain: B1 chain with A202N, Y211F
B18: 24 (protein)
chain: B1 chain with Y211F, P219V
B19: 18 (protein)
chain: B1 chain with V159A, Y211F
B20: 26 (protein)
chain: B1 chain with A202F, Y211F
B21: 16 (protein)
chain: B1 chain with A198S, Y211F
B22: 19 (protein)
chain: B1 chain with A198L, Y211F
B23: 10 (protein)
chain: B1 chain with A198M, Y211F
B24: 15 (protein)
chain: B1 chain with R151P, Y211F
B25: 9 (protein)
chain: B1 chain with A201G, Y211F
B26: 31 (protein)
chain: B1 chain with A198Q, Y211F
B27: 34 (protein)
chain: B1 chain with Y211F, I222S
B28: 20 (protein)
chain: B1 chain with A198N, Y211F

Test: High throughput cellobiose assay: fold improvement in cellobiase activity of CelA variants over a control enzyme (Tables 2A-2D, 3, 5, 6, 7)
Assay type: biochemical
Details: 3.3 g/l cellobiose, 50° C. and pH 6.5; compared to native CelA (SEQ ID NO: 4)
Description: β-glucosidase activity was also determined using a cellobiose assay, which used cellobiose as substrate. In a total volume of 100 μL, 25 μL clear media supernatant containing CelA enzyme was added to 10 g/L cellobiose (Fluka Cat. No. 22150, Sigma-Aldrich, Inc., St. Louis, Mo.) in 100 mM sodium phosphate buffer (pH 6-7) or sodium acetate buffer (pH 5-5.5). The reaction was incubated at 45-70° C. for an appropriate time (25 minutes to overnight depending on the enzyme concentration) while shaking. Glucose production was determined using an enzymatic glucose assay (K-GLUC, Megazyme, Ireland). 10 μl of each reaction was added to 190 μl GOPOD reagent (supplied as part of the K-GLUC assay kit). The reaction was incubated at 45° C. for 20 minutes and the absorbance of the solution was measured at 510 nm. The GOPOD reagent contains 50 mM Potassium phosphate buffer pH7.4, 0.011M p-hydroxybenzoic acid, 0.008% w/v sodium azide, glucose oxidase (>12,000 U/L), peroxidase (>650 U/L) and 80 mg/L 4-aminoantipyrine. The glucose oxidase enzyme in the reagent reacts with any glucose present in the sample and produces hydrogen peroxide which then reacts with the 4-aminoantipyrine to produce a quinoneimine dye in quantities proportionate with the amount of glucose present and can be measured spectrophotometrically at 510 nm. Detectable β-glucosidase activity was observed under high throughput screening conditions (i.e., pH 7, 50° C.).
Plasmid libraries containing variant CelA genes were transformed into B. megaterium and plated on Luria-Bertani (LB) agar plates containing 3 μg/mL tetracycline with a DM3 regeneration media overlay (400 mM sodium succinate dibasic, pH 7.3, 0.5% casamino acids, 0.5% yeast extract, 0.4% K2HPO4, 0.2% KH2PO4, 20 mM MgCl2, 0.5% glucose and 0.2% BSA). After incubation for at least 18 hours at 30° C., colonies were picked using a Q-bot® robotic colony picker (Genetix USA, Inc., Beaverton, Oreg.) into shallow, 96-well well microtiter plates containing 180 μL, LB and 10 μg/mL tetracycline. Cells were grown overnight at 37° C. with shaking at 200 rpm and 85% humidity. 10 μL of this culture was then transferred into 96-well microtiter plates (deep well) containing 390 μL A5-glucose-xylose medium and 10 μg/mL tetracycline as described in example 2. The plates were then incubated at 37° C. with shaking at 250 rpm and 85% humidity overnight (˜18-24 hours). The deep plates were centrifuged at 4000 rpm for 15 minutes and the clear media supernatant containing the secreted CelA enzyme was used for the high throughput pNPG or cellobiose assay of Example 5.
The CelA libraries were screened in high throughput using the cellobiose assay of Example 5 (Substrate: cellobiose; pH: 5-7; temperature: 45-72° C.; time: 2-24 hrs) for the identification of improved variants.
In shallow, 96-well microtiter plates 25 μL of media supernatant was added to 75 μL of […] cellobiose in 150 mM sodium acetate buffer pH 5-5.5 or 150 mM sodium phosphate buffer pH6-7. After sealing with aluminum/polypropylene laminate heat seal tape (Velocity 11 (Menlo Park, Calif.), Cat#06643-001), the plates were shaken at 45-65° C. for up to 24 hrs. The plates were centrifuged for 5 minutes at 4000 rpm. In shallow well clear microtiter plates, 10 μL of the reaction mixture was added to 190 μL of GOPOD reagent (as in example 5B) per well. The solutions were incubated at 45° C. for 1 hour and absorbance was measured at 510 nm for the identification of active CelA variants.
Improved CelA variants were identified from the high throughput screening of various CelA variant libraries as described in Example 7, using the cellobiose assay of Example 5 using 3.3 g/l cellobiose at temperatures from 50°-55° C. at a pH in the range of 5.3-6.5. Tables 2A, 2B, 2C, and 2D and Table 3 depict the improvement in activities of CelA variants encompassed by the invention. The assay conditions are indicated in each table. […]

Molecule	Fold improvement over wildtype CelA
B1	++ (++ = 2.1 to 2.6 fold improvement over native CelA (SEQ ID NO: 4))
B2	+ (+ = 1.1 to 2.0 fold improvement over native CelA (SEQ ID NO: 4))
B3	+ (+ = 1.1 to 2.0 fold improvement over native CelA (SEQ ID NO: 4))
B4	+ (+ = 1.1 to 2.0 fold improvement over native CelA (SEQ ID NO: 4))
B5	+ (+ = 1.1 to 2.0 fold improvement over native CelA (SEQ ID NO: 4))
B6	+ (+ = 1.1 to 2.0 fold improvement over native CelA (SEQ ID NO: 4))
B7	+ (+ = 1.1 to 2.0 fold improvement over native CelA (SEQ ID NO: 4))
B8	+ (+ = 1.1 to 2.0 fold improvement over native CelA (SEQ ID NO: 4))
B9	+ (+ = 1.1 to 2.0 fold improvement over native CelA (SEQ ID NO: 4))
B10	++ (++ = 2.1 to 2.6 fold improvement over native CelA (SEQ ID NO: 4))
B11	+ (+ = 1.1 to 2.0 fold improvement over native CelA (SEQ ID NO: 4))
B12	+ (+ = 1.1 to 2.0 fold improvement over native CelA (SEQ ID NO: 4))
B13	++ (++ = 2.1 to 2.6 fold improvement over native CelA (SEQ ID NO: 4))
B14	+ (+ = 1.1 to 2.0 fold improvement over native CelA (SEQ ID NO: 4))
B15	++ (++ = 2.1 to 2.6 fold improvement over native CelA (SEQ ID NO: 4))
B16	+ (+ = 1.1 to 2.0 fold improvement over native CelA (SEQ ID NO: 4))
B17	+ (+ = 1.1 to 2.0 fold improvement over native CelA (SEQ ID NO: 4))
B18	+ (+ = 1.1 to 2.0 fold improvement over native CelA (SEQ ID NO: 4))
B19	+ (+ = 1.1 to 2.0 fold improvement over native CelA (SEQ ID NO: 4))
B20	+ (+ = 1.1 to 2.0 fold improvement over native CelA (SEQ ID NO: 4))
B21	+ (+ = 1.1 to 2.0 fold improvement over native CelA (SEQ ID NO: 4))
B22	+ (+ = 1.1 to 2.0 fold improvement over native CelA (SEQ ID NO: 4))
B23	+ (+ = 1.1 to 2.0 fold improvement over native CelA (SEQ ID NO: 4))
B24	+ (+ = 1.1 to 2.0 fold improvement over native CelA (SEQ ID NO: 4))
B25	+ (+ = 1.1 to 2.0 fold improvement over native CelA (SEQ ID NO: 4))
B26	+ (+ = 1.1 to 2.0 fold improvement over native CelA (SEQ ID NO: 4))
B27	+ (+ = 1.1 to 2.0 fold improvement over native CelA (SEQ ID NO: 4))
B28	+ (+ = 1.1 to 2.0 fold improvement over native CelA (SEQ ID NO: 4))
